± gives the standard deviation of the averaged measurements.
The sequences below were run on Saccharomyces cerevisiae (assay: protein stability index of tFT-peptide fusion (C-terminal peptide) (PSI (0-1 scale)); higher = more stable (slower turnover)). Details: genetic background: wild type; temperature: 30 C.
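Note: PSI is a weighted mean of sequencing reads over stability bins, variants kept only with over 10 reads, mCherry proximal and sfGFP distal, peptide attached via GGGS linker.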

Sequence	protein stability index
SLGCIPLVDFLR	0.668 ± 0.0072
SLGFRSLGFDRV	0.7195 ± 0.0024
SLGPPSLSARTN	0.626 ± 0.045
SLICPPFWPPSF	0.691 ± 0.044
SLILRKDKKKKK	0.69 ± 0.01
SLIRSHKLKLFP	0.732 ± 0.045
SLLDPLLPLLLF	0.634 ± 0.017
SLLLALPSLPLS	0.553 ± 0.18
SLLPILFPPPPF	0.7147 ± 0.0046
SLLSCDETEFSS	0.614 ± 0.051
SLLSLSPACLPL	0.683 ± 0.026
SLLTSGSLTLFV	0.71 ± 0.037
SLLVSRVVFRGN	0.769 ± 0.12
SLPASTEPNVGT	0.696 ± 0.034
SLPFFPPRSPPS	0.725 ± 0.11
SLPFLPPSAPLP	0.76 ± 0.014
SLPLLPHLPASP	0.698 ± 0.17
SLPLPPLPYSRT	0.732 ± 0.083
SLPLPPPVRPLL	0.689 ± 0.047
SLPPLPSPPCPP	0.712 ± 0.044
SLPPPLPPPAPP	0.614 ± 0.04
SLPPPPAPPPAI	0.706 ± 0.086
SLPPPPARAAIL	0.668 ± 0.07
SLPPPSPLPPPV	0.558 ± 0.018
SLPRLRSCPSSF	0.774 ± 0.18
SLPRPASYPPRF	0.652 ± 0.079

Sequence	protein stability index
SLPSHPLPDPSR	0.67 ± 0.018
SLPYPFSLLPSL	0.739 ± 0.03
SLRGIVFQSPSP	0.737 ± 0.025
SLRNSFPPLSSP	0.651 ± 0.07
SLRTREGSSRRE	0.674 ± 0.23
SLSLHALPRPTT	0.655 ± 0.029
SLSLPSSVIVGS	0.624 ± 0.089
SLSLVSLSPSFS	0.694 ± 0.0096
SLSLYSSTSLLP	0.694 ± 0.064
SLSRLVGPLVSS	0.611 ± 0.0066
SLSVMSAPLVGI	0.636 ± 0.056
SLSVPYPPGLLP	0.7119 ± 0.0022
SLSWIGLYCCGL	0.717 ± 0.051
SLTGYAGESIRF	0.774 ± 0.056
SLVGFLPLWPSS	0.64 ± 0.0085
SLVNDLFFLFFY	0.523 ± 0.069
SLVTGRGFKVYR	0.681 ± 0.05
SLVWVVSDLGCG	0.778 ± 0.11
SLYQPLSPTPPE	0.74 ± 0.064
SMCASRMPVCFS	0.767 ± 0.18
SMGSGCTPSMVS	0.654 ± 0.11
SMNCTSLRPGSF	0.7065 ± 0.0015
SMSPAGARCLPR	0.782 ± 0.05
SNAGRRRTNRIP	0.682 ± 0.03
SNAIPGSHLCRS	0.719 ± 0.093
SNFCIWRWWLGF	0.6858 ± 0.0014

Sequence	protein stability index
SNFKKRKERFGR	0.7048 ± 0.0063
SNGFYVSRPIVY	0.769 ± 0.017
SNGGCIMSNIYS	0.758 ± 0.059
SNHPPLSFHTGR	0.734 ± 0.0084
SNKATNEGNVNV	0.68 ± 0.025
SNPKLPYSGTLE	0.6685 ± 0.0015
SNVHDEVLWTRA	0.704 ± 0.011
SPADALPLPGCG	0.707 ± 0.05
SPAFPPPPGFPP	0.69 ± 0.04
SPAKRLFRFPSS	0.729 ± 0.05
SPALLAPPFSPS	0.68455 ± 0.00067
SPAPSFLPLTPS	0.656 ± 0.014
SPARLPPLPSLS	0.734 ± 0.038
SPASPLDPSSSS	0.712 ± 0.037
SPFLINTIFDIT	0.606 ± 0.038
SPGLLPPPTSAF	0.71 ± 0.017
SPGPPLPSLTLP	0.738 ± 0.065
SPGPVTPRPSLR	0.669 ± 0.019
SPGSPLSPPAPP	0.62 ± 0.04
SPHPRKTTSHPR	0.6642 ± 0.0015
SPHTRPDPPPLP	0.681 ± 0.071
SPKCIVASFVVS	0.675 ± 0.028
SPLALATPLSDP	0.699 ± 0.039
SPLASAVPFLIV	0.633 ± 0.045
SPLPPPPPSSSS	0.661 ± 0.016
SPLPPPPSRPPR	0.794 ± 0.032

Sequence	protein stability index
SPLPPTPPPISP	0.6721 ± 0.00083
SPLYCGLSLPSV	0.664 ± 0.027
SPNSCSVDYFAT	0.61 ± 0.055
SPPESTFAFLRP	0.706 ± 0.037
SPPFLLPFFPTP	0.68 ± 0.043
SPPHASPPVLPW	0.72 ± 0.028
SPPHLPPPLLST	0.645 ± 0.06
SPPLPPPVPTAP	0.7095 ± 0.0056
SPPLPPVLSRSH	0.741 ± 0.043
SPPLSPPLPSRP	0.7016 ± 0.0064
SPPLSRSPPPTL	0.674 ± 0.039
SPPPFLCSPFVA	0.684 ± 0.024
SPPPGHPPLVPN	0.767 ± 0.013
SPPPHSARPPRP	0.686 ± 0.012
SPPPLPTAPPPL	0.713 ± 0.066
SPPPPLLPHPTP	0.723 ± 0.047
SPPPPPPARCPS	0.592 ± 0.045
SPPPPPPPHSPD	0.654 ± 0.071
SPPPPPPSPPLH	0.727 ± 0.044
SPPPPPTSPPPY	0.638 ± 0.0091
SPPPPRPRPCAI	0.753 ± 0.12
SPPRSCLPRPPD	0.676 ± 0.05
SPPRSPPTFPPC	0.704 ± 0.063
SPPSFIVPSTSL	0.69 ± 0.054
SPPSPASPPSSP	0.741 ± 0.075
SPPSPPPSPPTL	0.77 ± 0.092

Sequence	protein stability index
SPPSPSPSPRPL	0.669 ± 0.03
SPPVPLSPPLSP	0.537 ± 0.023
SPRIDFLLPCSS	0.647 ± 0.032
SPRLPLSRPLVV	0.574 ± 0.0064
SPRLPPPRPLPS	0.676 ± 0.057
SPRPSPPPPSHA	0.636 ± 0.077
SPRRVAVAGETS	0.68 ± 0.093
SPSLPHAPSRPP	0.607 ± 0.06
SPSNPSLRLSSP	0.676 ± 0.023
SPSPPPPPPPPL	0.6877 ± 0.0022
SPSPPPRTPPPL	0.689 ± 0.022
SPSSLPPTLPTL	0.711 ± 0.021
SPTDSDINIPRV	0.714 ± 0.05
SPTGTPIIPSYP	0.684 ± 0.0098
SPTPPPTSPSRP	0.728 ± 0.11
SPVSPPLVRPPY	0.642 ± 0.054
SQFLRPSAVAPS	0.642 ± 0.037
SQGLWRGVALTG	0.7325 ± 0.0017
SQHTNTKTKLKK	0.706 ± 0.043
SQKWKGSSVIIG	0.723 ± 0.032
SQLGRPSLHPVR	0.6601 ± 0.0024
SQRPPPLCDFTD	0.723 ± 0.013
SQTRIKPREETA	0.653 ± 0.031
SRAGAVLSGIES	0.669 ± 0.013
SRDRRASPPLPP	0.722 ± 0.049
SRDSRSSRRAGA	0.702 ± 0.065

Sequence	protein stability index
SRESTPDSHTMS	0.726 ± 0.065
SRFHVLLPPPPS	0.674 ± 0.035
SRFSRAVSVARV	0.666 ± 0.023
SRGGGEGTVGKK	0.697 ± 0.022
SRGGGWSEGGEG	0.716 ± 0.028
SRGLPAPASRYC	0.713 ± 0.015
SRHPPPPVSPHP	0.727 ± 0.064
SRHPSFPLPMPL	0.746 ± 0.086
SRHRAVRAGENW	0.708 ± 0.045
SRISSCSLVRPP	0.679 ± 0.032
SRKNGLQRKQKT	0.7277 ± 0.0055
SRLLLPIGISRV	0.543 ± 0.16
SRLNRRKGNGRK	0.656 ± 0.083
SRLSPSPLPPFL	0.667 ± 0.023
SRNAFTLAARVY	0.589 ± 0.016
SRPALLLGSEAT	0.642 ± 0.031
SRPATGSVTFPP	0.694 ± 0.0098
SRPPHPSPPRTF	0.675 ± 0.03
SRPPSSQSNDEL	0.66 ± 0.078
SRQPPPRVFCVV	0.571 ± 0.035
SRRKMRILQIVD	0.623 ± 0.092
SRRNRIYSHTSS	0.666 ± 0.025
SRSGLSPTLPVF	0.699 ± 0.016
SRSGPGEIVTTG	0.688 ± 0.041
SRSPLCRCAPSF	0.6534 ± 0.0043
SRSPPVLTRHKL	0.824 ± 0.058

Sequence	protein stability index
SRVVAGLWRGAV	0.671 ± 0.18
SRWLLSLFTSSF	0.762 ± 0.052
SRYRPTGAHYGH	0.714 ± 0.064
SSAGEVAFVAGT	0.689 ± 0.089
SSAPPPPPRPLP	0.588 ± 0.052
SSFPPAPHAPHD	0.739 ± 0.03
SSFRASVRSRKT	0.692 ± 0.022
SSFSAPPMPRSF	0.653 ± 0.028
SSGNSVDCFGHQ	0.6959 ± 0.0057
SSHLILTVAPSA	0.6515 ± 0.0045
SSHPMNQVIKDR	0.659 ± 0.13
SSKGGWSGGGSV	0.71 ± 0.025
SSLAPLLYLDTP	0.661 ± 0.084
SSLRPSRPPPAS	0.6988 ± 0.0057
SSLSPLLYRPLF	0.742 ± 0.047
SSLSPTPPPSFP	0.84 ± 0.2
SSPAPPPLLLPS	0.7047 ± 0.00088
SSPIFPDPSHVS	0.6058 ± 0.0054
SSPLSSPLSTAP	0.622 ± 0.018
SSPLVHWFSYLS	0.682 ± 0.023
SSPPPHPPPVPR	0.688 ± 0.1
SSPPRPLPPHHT	0.705 ± 0.059
SSPSFPSPLPPY	0.701 ± 0.074
SSPSYVPVSYSQ	0.708 ± 0.066
SSRAPSLPPPPP	0.674 ± 0.025
SSRCLPPFPLCP	0.736 ± 0.11

Sequence	protein stability index
SSRLALVLLPPG	0.649 ± 0.042
SSRRYSGLSFTS	0.702 ± 0.015
SSRVLFRVSVLR	0.646 ± 0.09
SSSFFLFPVGFF	0.784 ± 0.14
SSSHRPTAPSSR	0.669 ± 0.05
SSSPLPPPSPPP	0.673 ± 0.032
SSSPTPLPRSLP	0.671 ± 0.024
SSSTPPVHVPIS	0.647 ± 0.083
SSSVSYFLHYCI	0.606 ± 0.038
SSSWILCRFGRS	0.664 ± 0.041
SSTCSPPRLSQS	0.679 ± 0.046
SSVEREEEGGGG	0.676 ± 0.11
SSVFRSYTSVLS	0.686 ± 0.076
SSVGLRTRRTAR	0.638 ± 0.081
SSVILPLRRWPP	0.648 ± 0.094
SSVVPITLPAFL	0.707 ± 0.019
STALVFSDSALL	0.694 ± 0.061
STDRPLRLHPGG	0.622 ± 0.041
STEFCRIIYRGP	0.681 ± 0.023
STICQRSTSGKG	0.657 ± 0.031

From the supplement of paper PMC10724198
